# Assay results taken from patent CN102127167A (SUZHOU IND PARK CHENJIAN ANTIBODY GROUP PHARMACEUTICAL DEV …, dated 2011).
# Where “and” joins values, the source holds several entries; their conditions need not be identical. Equal values may be shown once.
# B1: 抗人TNFa抗体-01 (antibody, human IgG1, kappa)
# heavy: not shown
# light: EIVLTQSPDFQSVTPKEKVTITCRASQFVGYSIHWYQQKPDQSPKLLIKYASESRSGVPSRFSGSGSGTDFTLTINSLEAEDAATYYCQQSHSWHFTFGQGTKLEIKRTVAAPSVFIFPPSDEQLKSGTASVVCLLNNFYPREAKVQWKVDNALQSGNSQESVTEQDSKDSTYSLSSTLTLSKADYEKHKVYACEVTHQGLSSPVTKSFNRGEC
# notes: also called 抗人TNFa-01; pCI-TNF-01
# B2: 抗人TNFa抗体-02 (antibody, human IgG1, kappa)
# heavy: not shown
# light: B1 light
# notes: Full-length human IgG1 made in CHO cells; Same doubt about plain or PEGylated form as for m1; also called 抗人TNFa-02; pCI-TNF-02
# Experiments:
# 人TNFα [1] = molecular target: T1, 人TNFα (human, UniProt P01375 77-233); experiment: ELISA, plate coated at 0.1 ug/well, antibody dilution series
# T1 construct: also called 人TNFa; hTNFa
# T1 sequence (P01375 77-233 limits assumed): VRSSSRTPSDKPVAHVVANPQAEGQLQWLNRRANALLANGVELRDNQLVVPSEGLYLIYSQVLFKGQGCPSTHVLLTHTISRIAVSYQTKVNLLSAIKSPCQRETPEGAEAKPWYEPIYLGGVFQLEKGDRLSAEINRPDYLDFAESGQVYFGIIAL
# 人TNFα [2] = molecular target: T1, 人TNFα; experiment: SPR (Biacore), TNFa coupled to the chip, antibody as analyte
# 人TNFα [3] = molecular target: T1, 人TNFα; experiment: cell-based or functional assay
# 人TNFα [4] = molecular target: T1, 人TNFα; experiment: cell-based or functional assay; remark: listed apart in the source
Binder,lowest detected concentration relative to humira (人TNFα [1]),Kd (人TNFα [2]) [nM],koff (人TNFα [2]) [s⁻¹],kon (人TNFα [2]) [M⁻¹ s⁻¹],"IC50 relative to humira, L929细胞保护试验 (人TNFα [3])","neutralising activity relative to humira, L929细胞保护试验 (人TNFα [3])","IC50(pM), L929细胞保护试验 (人TNFα [4])","IC50(pM), L929细胞保护试验, 平均值 (人TNFα [4]) [pM]"
B1,0.5 fold of humira,0.326,0.000185,568000,~0.2 fold of humira IC50,~5 fold of humira,0.56 pM and 0.938 pM and 0.46 pM,0.51
B2,0.5 fold of humira,0.33,0.000188,571000,~0.1 fold of humira IC50,~10 fold of humira,0.34 pM and 0.25 pM and 0.234 pM,0.275
